Results on 31 sequences are retold here after the supplement of paper PMC9170038.

The data set concerns MS2 coat protein. The data set is described as follows: apparent KD of MS2 coat protein; designed switch direction (-1 OFF switch, 1 ON switch): -1; higher = weaker reporter binding. In short, it runs like this:
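Three titration conditions were used: no input, 200 uM small-molecule ligand, and an oligonucleotide input. In each, SNAP-549-labelled MS2 coat protein was raised from 0.7 or 1.5 nM, doubling, to 3 µM over designed RNA switches transcribed on Illumina chips by stalled E. coli RNA polymerase. Curve fits of normalised cluster fluorescence gave values whose per-design median over clusters is the apparent KD.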

[1] abbreviates: Eterna round: R95, input ligand: FMN 200 uM.
Where [2] appears, read: Eterna round: R95, input ligand: microRNA oligo, concentration not stated.
Setting [3] is: Eterna round: R95, input ligand: none.
Where [4] appears, read: input ligand: microRNA oligo, concentration not stated.

For “GAGAAGGUAGGAUAUACGAAGAAAAAGGGUAGAAGAAGAACACAUGAGGAUCACCCAUGUAGAAGGACCAAGAG [Mat - Exclusion 2 - Mod of my Tesla design - D17] (puzzle: Exclusion 2)”, the “apparent KD of MS2 coat protein” value is, setting by setting: under setting [1], 0.038 µM; under setting [2], 0.0215 µM; under setting [3], 0.0225 µM.

“GAGGAGCAAGGAUAUACGAGGAUAUGGAAGGUUGGAGAGUGACAUGAGGAUCACCCAUGUAGAAGGUGCAAGGG [JR_Exclu2_Sub096] (puzzle: Exclusion 2)”: the “apparent KD of MS2 coat protein” value came to 0.0659 µM under setting [1], 0.0918 µM under setting [2] and 0.131 µM under setting [3].

Turning to “GAGGAUGUAGGAUAUACUUAGGGUGAGCUCUAAGUGAAUCAACAUGAGGAUCACCCAUGUAGAAGGGCAGGACG [Eternabot (Original) Solution 37] (Eterna round: R97, puzzle: Exclusion 2)”, the “apparent KD of MS2 coat protein” value (input ligand: FMN 200 uM) was 0.248 µM and the “apparent KD of MS2 coat protein” value (input ligand: none) turned out to be 0.122 µM.

Turning to “GAGGGACAUGAGGAUCACCCAUGUGAGGAUAUGUGAGAAGGAUUGGAGAGAAUAAGAAACAGAAGGCGCUGUAG [JR_Exclu1_Sub088] (puzzle: Exclusion 1)”, the “apparent KD of MS2 coat protein” value is, setting by setting: under setting [1], 0.107 µM; under setting [2], 0.0889 µM; under setting [3], 0.138 µM.

On to “GAGUACAGAGGAUAUACAUGAGGAUCACCCAUGUGUUUCAGCUAGGAGACUAGCGAAAGUAGAAGGCUGUACUG [salish99_ex3_r4_006] (Eterna round: R97, puzzle: Exclusion 3)”, for which the “apparent KD of MS2 coat protein” value (input ligand: FMN 200 uM) is 0.0234 µM and the “apparent KD of MS2 coat protein” value (input ligand: none) amounted to 0.0103 µM.

On to “GAGUAGGUAGGAUAUACGAUAAUAUAGGGUAGAUAUAUAACACAUGAGGAUCACCCAUGUAGAAGGACCAGGAG [Mat - Exclusion 2 - Mod of my Tesla design - D63] (puzzle: Exclusion 2)”, for which the “apparent KD of MS2 coat protein” value was 0.115 µM under setting [1], 0.0383 µM under setting [2] and 0.0366 µM under setting [3].

As to “GAGUGACAUGAGGAUCACCCAUGUGAGGAUAUCGGCCGGACCUUGUUAGCUUCCACCGCGAGAAGGCACAUCGG [Exclusion 1 V29] (puzzle: Exclusion 1)”, the “apparent KD of MS2 coat protein” value under setting [2] came out at 0.0203 µM.

In the case of “GAGUGGCAAGGAUAUACAGAGGAGAGGAAGGCAAGAGGUGGACAUGAGGAUCACCCAUGUAGAAGGUGCAGAGG [JR_Exclu2_Sub025] (puzzle: Exclusion 2)”, the “apparent KD of MS2 coat protein” value by setting is: under setting [1], 0.157 µM; under setting [2], 0.134 µM; under setting [3], 0.288 µM.

As for “GAUACACAUGAGGAUCACCCAUGUUAGGAUAUUAGCGGGAAAGCUGUCAGACAGUCGAUGAGAAGGAACAGGAG [Excls1-VIII] (puzzle: Exclusion 1)”, under setting [2], the “apparent KD of MS2 coat protein” value is 0.0293 µM.

On to “GAUAGAGCAGGAUAUCGAGAUCCGCACAUGAGGAUCACCCAUGUUCGGUCGAAAGACCGACGAGAAGGGCUCUAUC [Omei Ex5 E8] (Eterna round: R97, puzzle: Exclusion 5)”, for which the “apparent KD of MS2 coat protein” value (input ligand: FMN 200 uM) was determined as 0.639 µM and the “apparent KD of MS2 coat protein” value (input ligand: none) was found to be 0.603 µM.

Turning to “GAUAUGCGUGUGAGGAUAUUCGACGCGCAAACGGAGAAGAAGGCACAUGAGGAUCACCCAUGUGGAGGGAAGAA [BmEX4 A.13] (Eterna round: R97, puzzle: Brourd's mod of Exclusion 4)”, the “apparent KD of MS2 coat protein” value came out at 0.0828 µM (input ligand: FMN 200 uM) and 0.0207 µM (input ligand: none).

For the sequence “GAUCAACAUGAGGAUCACCCAUGUUAGGAUAUGUCCACGUGGCAUAGGACCACGUGUGGCAGAAGGAGCGUUAA [Eternabot (L2) Solution 52] (Eterna round: R97, puzzle: Exclusion 1)”, the “apparent KD of MS2 coat protein” value was 0.0379 µM (input ligand: FMN 200 uM) and 0.0374 µM (input ligand: none).

Consider “GAUCAGUCAGGAUAUCAAUCCGCCUGUGAUACGCAGGCGGCUGAGAAGGGACAUGAGGAUCACCCAUGUAAAGA [jl-ex4-4.22 ViennaUCT mod] (Eterna round: R97, puzzle: Exclusion 4)”, for which the “apparent KD of MS2 coat protein” value (input ligand: FMN 200 uM) turned out to be 0.191 µM and the “apparent KD of MS2 coat protein” value (input ligand: none) was 0.0804 µM.

On to “GAUCAUGCAGGAUAUACAUAAACCAUGAAAACAUGGAUCAAACAUGAGGAUCACCCAUGUAGAAGGGCAUGAUC [Omei Ex2 A20] (Eterna round: R97, puzzle: Exclusion 2)”, for which the “apparent KD of MS2 coat protein” value (input ligand: FMN 200 uM) came to 0.042 µM and the “apparent KD of MS2 coat protein” value (input ligand: none) was found to be 0.0241 µM.

As for “GAUCAUGCAGGAUAUACAUGGAACAUGAAAACAUGAAUUUCACAUGAGGAUCACCCAUGUAGAAGGGCAUGAUC [Omei Ex2 A12] (Eterna round: R97, puzzle: Exclusion 2)”, the “apparent KD of MS2 coat protein” value runs as follows: (input ligand: FMN 200 uM) 0.0542 µM; (input ligand: none) 0.579 µM.

On to “GAUCCUUUUACGGACGUCUCGAAACAUGAGGAUCACCCAUGUGAGGAUAUCUCCGAAAGGUCGGCAGAGAAGGCACAAUAACAA [MOD2 Eternabot solution 19 score 84.66] (Eterna round: R96, puzzle: Exclusion NG 3)”, for which the “apparent KD of MS2 coat protein” value (input ligand: FMN 200 uM) stood at 0.0294 µM, the “apparent KD of MS2 coat protein” value under setting [4] was found to be 0.013 µM and the “apparent KD of MS2 coat protein” value (input ligand: none) came to 0.0187 µM.

On to “GAUCCUUUUACGGACGUCUCGAAACAUGAGGAUCACCCAUGUGAGGAUAUCUCCGAGAGAUCGGCAGAGAAGGCACAAUAACAA [MOD Eternabot solution 19 score 84.66] (Eterna round: R96, puzzle: Exclusion NG 3)”, for which the “apparent KD of MS2 coat protein” value reads like this: (input ligand: FMN 200 uM) 0.0914 µM; under setting [4], 0.0197 µM; (input ligand: none) 0.0503 µM.

In the case of “GAUCGACAUGAGGAUCACCCAUGUCAGGAUAUCUACAUUGAAGCUGCGGCUUCAAUGUAGAGAAGGGAUAUAAU [E1/16-B1] (Eterna round: R97, puzzle: Exclusion 1)”, the “apparent KD of MS2 coat protein” value by setting is: (input ligand: FMN 200 uM) 0.0369 µM; (input ligand: none) 0.0272 µM.

As for “GAUGUGGGUUUCCGGAGGAACAUGAGGAUCACCCAUGUAGAAGUUGGAGGGAUAACGCUUUUUGCUCGUUACACGUG [JR_SV3TOV1_Sub055] (puzzle: Sensor v3, turn-off variant 1)”, the “apparent KD of MS2 coat protein” value came to 0.178 µM under setting [1], 0.17 µM under setting [2] and 0.221 µM under setting [3].

On to “GAUUAAUGCAAGGAUAUGCUAUUAUUUUAUUUUGCAGAAGGUGCAACAUGAGGAUCACCCAUGUUGGAGGGUAU [JR_E6_Sub026] (puzzle: Exclusion 6)”, for which, under setting [2], the “apparent KD of MS2 coat protein” value was 0.0174 µM.

On to “GAUUAGAUAGGAUAUACAGGCUCGUCUUUAUAUUGAUCCCGACAUGAGGAUCACCCAUGUAGAAGGAUUAGAUU [Mod 30 - Jieux - Exclusion 2] (Eterna round: R97, puzzle: Exclusion 2)”, for which the “apparent KD of MS2 coat protein” value came to 0.0257 µM (input ligand: FMN 200 uM) and 0.0266 µM (input ligand: none).

In the case of “GAUUAUGCGAGCUUUAGGGACAUGAGGAUCACCCAUGUUCGUCUUAUUAAUCUGGGUACACUGGCAUACCUAAAUCU [JMF 7] (puzzle: Sensor v3, turn-off variant 1)”, the “apparent KD of MS2 coat protein” value runs as follows: under setting [1], 0.0267 µM; under setting [2], 0.0377 µM; under setting [3], 0.0281 µM.

In the case of “GAUUAUGCGAGCUUUAGGGACAUGAGGAUCACCCAUGUUCGUCUUAUUAGUCUAGGUACACUAACAUACCUAAAUCU [JMF 18] (puzzle: Sensor v3, turn-off variant 1)”, the “apparent KD of MS2 coat protein” value came out at 0.0213 µM under setting [1], 0.0388 µM under setting [2] and 0.0219 µM under setting [3].

On to “GAUUAUGCGAGCUUUAGGGACAUGAGGAUCACCCAUGUUCGUCUUAUUAGUCUAGGUGCGCUAACAUACCUAAAUCU [JMF 50] (puzzle: Sensor v3, turn-off variant 1)”, for which the “apparent KD of MS2 coat protein” value under setting [1] amounted to 0.0207 µM, the “apparent KD of MS2 coat protein” value under setting [2] is 0.0354 µM and the “apparent KD of MS2 coat protein” value under setting [3] came to 0.0216 µM.

With “GAUUAUGCGAGCUUUAGGGACAUGAGGAUCACCCAUGUUCGUCUUAUUGAUCUAGGUACACUGACAUACCUAAAUCU [JMF 66] (puzzle: Sensor v3, turn-off variant 1)”, the “apparent KD of MS2 coat protein” value runs as follows: under setting [1], 0.0237 µM; under setting [2], 0.0399 µM; under setting [3], 0.0245 µM.

For “GAUUAUGCGAGCUUUAGGGACAUGAGGAUCACCCAUGUUCGUCUUAUUGAUCUGGAUGCACUGACAUACCUAAAUCU [JMF 80] (puzzle: Sensor v3, turn-off variant 1)”, the “apparent KD of MS2 coat protein” value turned out to be 0.029 µM under setting [1], 0.0375 µM under setting [2] and 0.0283 µM under setting [3].

As to “GAUUAUGCGAGCUUUAGGGACAUGAGGAUCACCCAUGUUCGUCUUAUUGGUCUAAAUGCACUAACAUACCUAAAUCU [JMF 23] (puzzle: Sensor v3, turn-off variant 1)”, the “apparent KD of MS2 coat protein” value runs as follows: under setting [1], 0.0177 µM; under setting [2], 0.0224 µM; under setting [3], 0.0193 µM.

“GAUUAUGCGAGCUUUAGGGACAUGAGGAUCACCCAUGUUCGUCUUAUUGGUCUGAAUACACUAACAUACCUAAAUCU [JMF 11] (puzzle: Sensor v3, turn-off variant 1)”: the “apparent KD of MS2 coat protein” value under setting [1] stood at 0.0174 µM, the “apparent KD of MS2 coat protein” value under setting [2] turned out to be 0.0337 µM and the “apparent KD of MS2 coat protein” value under setting [3] is 0.0217 µM.

Regarding “GAUUGACAUGAGGAUCACCCAUGUGAGGAUAUCGGCCGGACCGUGCCGGCUUCCGUCGCGAGAAGGCGCAUAGG [Exclusion 1 V40] (puzzle: Exclusion 1)”, the “apparent KD of MS2 coat protein” value is, setting by setting: under setting [1], 0.0495 µM; under setting [2], 0.032 µM; under setting [3], 0.0373 µM.

For the sequence “GAUUGACAUGAGGAUCACCCAUGUGAGGAUAUCGGCUGGACCGUGUUGGCUUCGGUUUCGAGAAGGCGCAUAGG [Exclusion 1 V45] (puzzle: Exclusion 1)”, the “apparent KD of MS2 coat protein” value under setting [1] is 0.0529 µM, the “apparent KD of MS2 coat protein” value under setting [2] was 0.0901 µM and the “apparent KD of MS2 coat protein” value under setting [3] was found to be 0.102 µM.

As to “GAUUGACAUGAGGAUCACCCAUGUGAGGAUAUCGGCUGGACCGUGUUGGCUUGCCUUUCGAGAAGGCGCAUAGG [Exclusion 1 V48] (puzzle: Exclusion 1)”, the “apparent KD of MS2 coat protein” value under setting [2] was 0.0324 µM.
